Series [1] relates to HeLa Kyoto. In words: melting temperature (median over replicates), in situ; higher = more thermally stable.
Series [2] concerns HeLa Kyoto. The series can be described thus: thermal stability score vs G1/S (z-score of summed log2 fold changes over temperatures); higher = more thermally stable than in G1/S.
The test system of series [3] is HeLa Kyoto. In words: solubility in G1/S (NP-40 vs SDS abundance) (log2 ratio); higher = more soluble. Conditions: cell cycle stage: G1/S.
In series [4] the test system is HeLa Kyoto. The series can be described thus: solubility change mitosis vs G1/S (difference of NP-40 vs SDS log2 ratios) (log2 ratio difference); higher = more soluble in mitosis.
Where [5] appears, read: cell cycle stage: early G1 (4.5 h after nocodazole release).

The text below walks through data of the supplement of paper PMC5998384.
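Throughout, for melting temperature (median over replicates), in situ: HeLa Kyoto cells synchronized by double thymidine or nocodazole block, proteins quantified by TMT10plex mass spectrometry, three independent biological replicates.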
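Throughout, for solubility change mitosis vs G1/S (difference of NP-40 vs SDS log2 ratios): synchronized HeLa Kyoto cells (double thymidine block for G1/S, nocodazole release for mitosis), protein amounts in NP-40 versus SDS lysates quantified by mass spectrometry, three biological replicates.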
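Throughout, for solubility in G1/S (NP-40 vs SDS abundance): HeLa Kyoto cells arrested at G1/S by double thymidine block, proteins quantified by TMT10plex mass spectrometry in mild NP-40 versus SDS extracts, three biological replicates.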
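Throughout, for thermal stability score vs G1/S (z-score of summed log2 fold changes over temperatures): synchronized HeLa Kyoto cells, proteins quantified by TMT10plex mass spectrometry, three biological replicates, mitosis taken 0.5 h after nocodazole release, G1/S directly after double thymidine block.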

On to “MAFRQALQLAACGLAGGSAAVLFSAVAVGKPRAGGDAEPRPAEPPAWAGGARPGPGVWDPNWDRREPLSLINVRKRNVESGEEELASKLDHYKAKATRHIFLIRHSQYHVDGSLEKDRTLTPLGREQAELTGLRLASLGLKFNKIVHSSMTRAIETTDIISRHLPGVCKVSTDLLREGAPIEPDPPVSHWKPEAVQYYEDGARIEAAFRNYIHRADARQEEDSYEIFICHANVIRYIVCRALQFPPEGWLRLSLNNGSITHLVIRPNGRVALRTLGDTGFMPPDKITRS [PGAM5]”, for which the melting temperature turned out to be 52.8 °C in series [1] (cell cycle stage: G1/S) and 52.2 °C in series [1] (cell cycle stage: mitosis). For the same sequence, the thermal stability score was 1.94 in series [2] (setting [5]) and -3.72 in series [2] (cell cycle stage: mitosis). In series [3], the “solubility in G1/S (log2)” value is -0.0731. Further, in series [4], the “solubility change mitosis (log2)” value is 0.121.

Take “MAFVTRQFMRSVSSSSTASASAKKIIVKHVTVIGGGLMGAGIAQVAAATGHTVVLVDQTEDILAKSKKGIEESLRKVAKKKFAENLKAGDEFVEKTLSTIATSTDAASVVHSTDLVVEAIVENLKVKNELFKRLDKFAAEHTIFASNTSSLQITSIANATTRQDRFAGLHFFNPVPVMKLVEVIKTPMTSQKTFESLVDFSKALGKHPVSCKDTPGFIVNRLLVPYLMEAIRLYERGDASKEDIDTAMKLGAGYPMGPFELLDYVGLDTTKFIVDGWHEMDAENPLHQPSPSLNKLVAENKFGKKTGEGFYKYK [HADH]”: the melting temperature was determined as 53.4 °C in series [1] (cell cycle stage: G1/S) and 53.7 °C in series [1] (cell cycle stage: mitosis). Also, the thermal stability score is -2.07 in series [2] (setting [5]) and -1.2 in series [2] (cell cycle stage: mitosis). In addition, the “solubility in G1/S (log2)” value in series [3] was determined as 0.267. Besides, the “solubility change mitosis (log2)” value in series [4] came to 0.00527.

With “MAGAAAESGRELWTFAGSRDPSAPRLAYGYGPGSLRELRAREFSRLAGTVYLDHAGATLFSQSQLESFTSDLMENTYGNPHSQNISSKLTHDTVEQVRYRILAHFHTTAEDYTVIFTAGSTAALKLVAEAFPWVSQGPESSGSRFCYLTDSHTSVVGMRNVTMAINVISTPVRPEDLWSAEERSASASNPDCQLPHLFCYPAQSNFSGVRYPLSWIEEVKSGRLHPVSTPGKWFVLLDAASYVSTSPLDLSAHQADFVPISFYKIFGFPTGLGALLVHNRAAPLLRKTYFGGGTASAYLAGEDFYIPRQSVAQRFEDGTISFLDVIALKHGFDTLERLTGGMENIKQHTFTLAQYTYVALSSLQYPNGAPVVRIYSDSEFSSPEVQGPIINFNVLDDKGNIIGYSQVDKMASLYNIHLRTGCFCNTGACQRHLGISNEMVRKHFQAGHVCGDNMDLIDGQPTGSVRISFGYMSTLDDVQAFLRFIIDTRLHSSGDWPVPQAHADTGETGAPSADSQADVIPAVMGRRSLSPQEDALTGSRVWNNSSTVNAVPVAPPVCDVARTQPTPSEKAAGVLEGALGPHVVTNLYLYPIKSCAAFEVTRWPVGNQGLLYDRSWMVVNHNGVCLSQKQEPRLCLIQPFIDLRQRIMVIKAKGMEPIEVPLEENSERTQIRQSRVCADRVSTYDCGEKISSWLSTFFGRPCHLIKQSSNSQRNAKKKHGKDQLPGTMATLSLVNEAQYLLINTSSILELHRQLNTSDENGKEELFSLKDLSLRFRANIIINGKRAFEEEKWDEISIGSLRFQVLGPCHRCQMICIDQQTGQRNQHVFQKLSESRETKVNFGMYLMHASLDLSSPCFLSVGSQVLPVLKENVEGHDLPASEKHQDVTS [MOCOS]”, the values for the melting temperature in series [1] (cell cycle stage: G1/S) and in series [1] (cell cycle stage: mitosis) were 53.3 °C and 53.6 °C, respectively. Besides, the thermal stability score was -1.28 in series [2] (setting [5]) and -1.96 in series [2] (cell cycle stage: mitosis). Besides, the “solubility in G1/S (log2)” value in series [3] was -0.123. For the same sequence, the “solubility change mitosis (log2)” value in series [4] was -0.13.

With “MAGAATQASLESAPRIMRLVAECSRSRARAGELWLPHGTVATPVFMPVGTQATMKGITTEQLDALGCRICLGNTYHLGLRPGPELIQKANGLHGFMNWPHNLLTDSGGFQMVSLVSLSEVTEEGVRFRSPYDGNETLLSPEKSVQIQNALGSDIIMQLDDVVSSTVTGPRVEEAMYRSIRWLDRCIAAHQRPDKQNLFAIIQGGLDADLRATCLEEMTKRDVPGFAIGGLSGGESKSQFWRMVALSTSRLPKDKPRYLMGVGYATDLVVCVALGCDMFDCVFPTRTARFGSALVPTGNLQLRKKVFEKDFGPIDPECTCPTCQKHSRAFLHALLHSDNTAALHHLTVHNIAYQLQLMSAVRTSIVEKRFPDFVRDFMGAMYGDPTLCPTWATDALASVGITLG [QTRT1]”, the melting temperature in series [1] (cell cycle stage: G1/S) came to 55.6 °C; in series [1] (cell cycle stage: mitosis) it was 54.9 °C. Also, the thermal stability score in series [2] (setting [5]) is 1.96; in series [2] (cell cycle stage: mitosis), 0.0564. Besides, the “solubility in G1/S (log2)” value in series [3] is 0.174. Besides, the “solubility change mitosis (log2)” value in series [4] is -0.0923.

In the case of “MAGAGGGNDIQWCFSQVKGAVDDDVAEADIISTVEFNHSGELLATGDKGGRVVIFQQEQENKIQSHSRGEYNVYSTFQSHEPEFDYLKSLEIEEKINKIRWLPQKNAAQFLLSTNDKTIKLWKISERDKRPEGYNLKEEDGRYRDPTTVTTLRVPVFRPMDLMVEASPRRIFANAHTYHINSISINSDYETYLSADDLRINLWHLEITDRSFNIVDIKPANMEELTEVITAAEFHPNSCNTFVYSSSKGTIRLCDMRASALCDRHSKLFEEPEDPSNRSFFSEIISSISDVKFSHSGRYMMTRDYLSVKIWDLNMENRPVETYQVHEYLRSKLCSLYENDCIFDKFECCWNGSDSVVMTGSYNNFFRMFDRNTKRDITLEASRENNKPRTVLKPRKVCASGKRKKDEISVDSLDFNKKILHTAWHPKENIIAVATTNNLYIFQDKVN [PPP2R2A]”, the melting temperature worked out at 54.7 °C in series [1] (cell cycle stage: G1/S) and 54.2 °C in series [1] (cell cycle stage: mitosis). Besides, the thermal stability score in series [2] (setting [5]) was -0.543; in series [2] (cell cycle stage: mitosis), -3.42. For the same sequence, the “solubility in G1/S (log2)” value in series [3] is -0.0929. Besides, the “solubility change mitosis (log2)” value in series [4] is -0.194.
